# Assay results as given in patent US20260055441A1, “A PCR-ELISA ANALOGOUS ANTIBODY-FREE METHOD FOR DETECTING A TARGET NUCLEIC ACID IN A SAMPLE” (UNIVERSITÄT HEIDELBERG, priority 2022, published 2026).
# Several values for one entry are separate records, joined by “and”; a condition that tells them apart may be missing. Equal entries are not always repeated.
# T1: latent papain P13 (Carica papaya, UniProt P00784)
# T1 construct: purchased Sigma Aldrich (Munich, Germany); host or cells: Papaya latex (natural source)
# T1 sequence (P00784 134-345): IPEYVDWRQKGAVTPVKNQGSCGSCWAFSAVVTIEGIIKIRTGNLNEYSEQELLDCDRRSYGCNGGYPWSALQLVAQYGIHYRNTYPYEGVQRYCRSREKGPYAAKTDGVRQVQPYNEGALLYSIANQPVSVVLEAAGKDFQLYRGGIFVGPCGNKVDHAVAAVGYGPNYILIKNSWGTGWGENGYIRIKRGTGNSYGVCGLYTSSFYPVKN
# T2: dU-triazole-PEG3-ULR dimer (21) (not fully specified)
# T2 chain: ULR
# B1: latent papain P23 (-S-S-(CH2)2-NH2) (protein)
# chain: T1 sequence (P00784 134-345)
# B2: latent papain P25 (-S-S-(CH2)2-CH3) (protein)
# chain: T1 sequence (P00784 134-345)
# B3: latent papain P24 (-S-S-CH2-COOH) (protein)
# chain: T1 sequence (P00784 134-345)
# B4: latent papain P26 (S-S-CH2-C6H5) (protein)
# chain: T1 sequence (P00784 134-345)
# Target: T1, latent papain P13
# Assay: Latent papain reactivation assay with thiol activators at 10 μM, rates normalized to 10 μM cysteine (FIG. 18)
# Assay type: biochemical
# Settings: activator 10 μM, latent papain 1 nM, Z-Phe-Arg-AMC 2 μM, pH 7
# Description: All following described fluorometric assays (Examples 1-3) are based on the reaction of reversibly inactivated papain (latent papain) with an activator containing either sulfur or selenium (with the exception of TCEP). Different latent papain forms, buffer compositions and activators in various concentrations were compared. Papain was hereby transferred in buffer (standard well buffer consisted of 0.1 M phosphate pH 7, 4 mM EDTA, 0.01% Brij35 and if activators contained diselenides, 1 μM TCEP) mixed with activator and substrate inside 96 well plates (without prior washing of the plates). After reactivation, active papain hydrolyses the substrate Z-Phe-Arg-AMC (2 μM) and the resulting fluorescence was tracked every minute for 2 h. The slopes of the corresponding curves were calculated for the linear portion within the first 30 minutes and the resulting reaction rates were directly compared. Resulting reaction rates directly reflect reactivation efficiencies of each activator under each reaction condition. […] After addition of activator a fraction of latent papain is immediately reactivated in rather non-stoichiometric proportions. Complete reactivation can generally only be achieved with great excess of activator. The partial reactivation with smaller activator amounts appears almost instantaneously because the resulting reaction curve show linear progression from the start except for very low activator concentrations. After reactivation, all different latent papain forms result in the same active enzyme. If different latent papain forms show different reaction rates in identical activation assays, the efficiency of reactivation with the applied activator can be deduced. The same applies for reactivation of one latent papain form with different activators or reaction conditions.
# Several thiol compounds and cysteine containing peptide activators (see Example 4.1) were compared for their potential to reactivate latent papain. To this end, the thiol compounds and cysteine containing peptide activators were utilized in reactivation assays (see Example 5, 5.2.2.2, fluorometric method 2) of papain P13 (see Example 1, 1.2) with an activator concentration of 10 μM. For thiols not completely soluble in phosphate buffer pH 7 at high concentrations, the 1 mM stock solution was prepared in DMSO, resulting in 1% DMSO in the reaction mixture. In order to normalize the observed reaction rates between assays, a 10 μM cysteine sample was additionally measured in every assay and reaction rates of the examined thiols were divided through the reaction rates produced by the 10 μM cysteine standard. Additionally, a measurement with 1 mM cysteine was performed in order to achieve maximal papain activation and therefore the maximal reaction rate within the confines of the assay. The resulting normalized rates are compared in FIG. 18.
# Different assays of reactivating latent papain in solution were conducted in the course of this work. Various buffer compositions, supplements, 96 well plates, substrates, activators, concentrations as well as different latent papain forms were compared. In order to get an overview of all experiments, a standard method is described in the following and variations of this method are subsequently defined. First, the well buffer was prepared (0.1 M phosphate buffer pH 7, 4 mM EDTA, 0.01% Brij35). A 1 mM TCEP solution was prepared with 3 mM NaOH in 0.1 M Tris-HCl buffer pH 8. Papain substrate (Z-Phe-Arg-AMC or Suc-Leu-Leu-Val-Tyr-AMC) was prepared as a 200 μM solution in water and transferred equally to a PCR strip. Three serial dilutions of the activating agent with well buffer were used in the different experiments and the corresponding pipetting schemes are shown in Table 9. Papain was diluted to 0.1 μM with well buffer and transferred equally to a PCR strip. After preparation of the abovementioned solutions, TCEP (1 mM solution) was added to well buffer to yield a final TCEP concentration of 1.1 μM. […]
row,Molecule,reaction rate compared to L-cysteine [%]
1,"OCCS [2-ME, 2-Mercaptoethan-1-ol]",70
2,N[C@H](CS)C(=O)O [D-cysteine],70

# Same assay, conditions: activator 10 μM, latent papain 1 nM, Z-Phe-Arg-AMC 2 μM, well buffer pH 7, no TCEP
row,Molecule,normalized ratio rate/rate 10 μM cysteine of substrate hydrolysis after reactivation of latent papain
1,"SCc1ccc(Cl)cc1 [4-chlorobenzyl mercaptan, 4-Chlorobenzyl mercaptan]",0.83
2,"Nc1nnc(S)s1 [5-Amino-1,3,4-thiadiazole-2-thiol]",almost no papain activation potential at all
3,"N[C@@H](CCS)C(=O)O [L-homocysteine, L-Homocysteine]",lower reaction rates
4,"CC(C)(S)[C@H](N)C(=O)O [L-penicillamine, L-Penicillamine]",lower reaction rates
5,"Sc1ccccc1 [thiophenol, Thiophenol]",4.86
6,H2N-C-F-R-CONH2 (H-Cys-Phe-Arg-NH2) [H2N—CFR—CONH2],more than twice as high
7,H2N-C-L-R-CONH2 (H-Cys-Leu-Arg-NH2) [H2N—CLR—CONH2],more than twice as high

# Target: T1, latent papain P13
# Assay: Screening of peptide-based papain activators, rates normalized to cysteine ethyl ester (FIG. 19, FIG. 20)
# Assay type: biochemical
# Settings: FIG. 20, concentration series 50 nM-10 μM
# Description: L-Cysteine ethyl ester was utilized in identical peptide concentrations as a standard in order to calculate normalized reaction rates for each synthesized peptide.
# […] The assays were conducted in well buffer with 1 nM latent papain P13. In order to give a clear overview, only the normalized rates for activator concentrations of 50 nM are depicted and compared.
# Additionally, 1 μM TCEP was added to each well of the cysteine concentration series in order to examine the influence of TCEP on reaction rates of thiols.
# Different assays of reactivating latent papain in solution were conducted in the course of this work. Various buffer compositions, supplements, 96 well plates, substrates, activators, concentrations as well as different latent papain forms were compared. In order to get an overview of all experiments, a standard method is described in the following and variations of this method are subsequently defined. First, the well buffer was prepared (0.1 M phosphate buffer pH 7, 4 mM EDTA, 0.01% Brij35). A 1 mM TCEP solution was prepared with 3 mM NaOH in 0.1 M Tris-HCl buffer pH 8. Papain substrate (Z-Phe-Arg-AMC or Suc-Leu-Leu-Val-Tyr-AMC) was prepared as a 200 μM solution in water and transferred equally to a PCR strip. Three serial dilutions of the activating agent with well buffer were used in the different experiments and the corresponding pipetting schemes are shown in Table 9. Papain was diluted to 0.1 μM with well buffer and transferred equally to a PCR strip. […] 342.4 μL of TCEP containing well buffer was transferred to each well, followed by 3.8 μL papain solution. After mixing, 30 μL of the prepared activator concentrations (see Table 9) were added and mixed. In the last step, 3.8 μL of the substrate solution was added and mixed, to yield a final well composition of 0.1 M phosphate buffer pH 7, 1 nM papain, 2 μM substrate, activator (see Table 9), 4 mM EDTA, 0.01% Brij35 and 1 μM TCEP. For experiments with only one activator concentration of 10 μM, the transferred well buffer for each well was 368.6 μL, followed by 3.8 μL of papain, substrate and activator (1 mM in well buffer) respectively.
Molecule,"activator efficiency, in words",potency relative to (L-)cysteine
"CC(=O)Nc1ccc(S)cc1 [4-acetamidothiophenol, 4-Acetamidothiophenol]",more potent activators compared to the tripeptide,–
"O=C(O)CCP(CCC(=O)O)CCC(=O)O [TCEP, Tris(2-carboxyethyl)phosphine]",very little efficiency,–
H2N-C-L-R-CONH2 (H-Cys-Leu-Arg-NH2) [H2N—CLR—CONH2],–,almost four times as efficient

# Same assay, conditions: activator 50 nM, latent papain P13 1 nM, substrate 2 μM, pH 7
row,Molecule,normalized ratio rate/rate cysteine ethyl ester (CysEE)
1,H2N-C-C-R-G-CONH2 (H-CCRG-NH2; cysteine pairing not given here) [H2N—CCRG-CONH2],most potent activators
2,H2N-C-L-C-G-CONH2 (H-CLCG-NH2; cysteine pairing not given here) [H2N—CLCG-CONH2],most potent activators
3,H2N-C-L-R-CONH2 (H-Cys-Leu-Arg-NH2) [H2N—CLR—CONH2],1.8 and 1.81
4,H2N-C-L-R-G-CONH2 (H-CLRG-NH2) [H2N—CLRG-CONH2],1.29
5,H2N-C-L-R-G-COOH (H-CLRG-OH) [H2N—CLRG-COOH],0.51

# Same assay, conditions: concentration series 50 nM-10 μM (FIG. 20); selenocysteine prepared with TCEP
row,Molecule,rate relative to the tripeptide H2N-CLR-CONH2
1,"CC(=O)Nc1ccc(S)cc1 [4-acetamidothiophenol, 4-Acetamidothiophenol]",five times as efficient

# Target: T2, dU-triazole-PEG3-ULR dimer (21)
# Assay: not given
# Settings: not given
Molecule,reaction rate of Z-Phe-Arg-AMC hydrolysis after reactivation of latent papain (1 nM) with activator 1-15 nM,normalized ratio rate/rate blank of substrate hydrolysis after reactivation of latent papain (1 nM) with activator 1-15 nM
B1,"papain P23, containing the positively charged amino group, was found to be by far the most efficiently reactivated latent papain form",–
B2,–,The second aliphatic residue of P25 showed surprisingly low reactivation potential towards the activator
B3,Papain P24 with its negatively charged residue showed reaction rates close to Papain P20 with the methyl residue,featured low normalized rates as seen for P24
B4,The papain variant P26 with its benzyl residue showed greatly reduced rates when compared to all other variants,papain P26 showed the third highest normalized rate values
